Results on six molecules are retold here after patent US20240270846A1 (published 2024).

B1: CE115HA000 H96K one-arm antibody (antibody, human IgG1, kappa, L234A L235A, N297A, name in Kabat numbering)
heavy: QVQLVESGGGVVQPGRSLRLSCAASGFTFSNAWMHWVRQAPGKGLEWVAQIKAKSNNYATYYAESVKGRFTISRDDSKNSLYLQMNSLKTEDTAVYYCRYVKYGAYYGVDAWGQGTTVTVSSASTKGPSVFPLAPSSKSTSGGTAALGCLVKDYFPEPVTVSWNSGALTSGVHTFPAVLQSSGLYSLSSVVTVPSSSLGTQTYICNVNHKPSNTKVDKKVEPKSCDKTHTCPPCPAPEAAGGPSVFLFPPKPKDTLMISRTPEVTCVVVDVSHEDPEVKFNWYVDGVEVHNAKTKPREEQYASTYRVVSVLTVLHQDWLNGKEYKCKVSNKALPAPIEKTISKAKGQPREPQVYTLPPSRCELTKNQVSLSCAVKGFYPSDIAVEWESNGQPENNYKTTPPVLDSDGSFFLVSKLTVDKSRWQQGNVFSCSVMHEALHNHYTQKSLSLSPDYKDDDDK
chain: EPKSSDKTHTCPPCPAPELLGGPSVFLFPPKPKDTLMISRTPEVTCVVVDVSHEDPEVKFNWYVDGVEVHNAKTKPREEQYNSTYRVVSVLTVLHQDWLNGKEYKCKVSNKALPAPIEKTISKAKGQPREPQVCTLPPSRDELTKNQVSLWCLVKGFYPSDIAVEWESNGQPENNYKTTPPVLDSDGSFFLYSKLTVDKSRWQQGNVFSCSVMHEALHNRYTQKSLSLSP
light: DIVMTQSPLSLPVTPGEPASISCRSSQSLVHSNRNTYLHWYQQKPGQAPRLLIYKVSNRFSGVPDRFSGSGSGTDFTLKISRVEAEDVGVYYCGQGTQVPYTFGQGTKLEIKRTVAAPSVFIFPPSDEQLKSGTASVVCLLNNFYPREAKVQWKVDNALQSGNSQESVTEQDSKDSTYSLSSTLTLSKADYEKHKVYACEVTHQGLSSPVTKSFNRGEC
notes: one-arm antibody
B2: CE115HA000 H96R one-arm antibody (antibody, human IgG1, kappa, L234A L235A, N297A, name in Kabat numbering)
heavy: QVQLVESGGGVVQPGRSLRLSCAASGFTFSNAWMHWVRQAPGKGLEWVAQIKAKSNNYATYYAESVKGRFTISRDDSKNSLYLQMNSLKTEDTAVYYCRYVRYGAYYGVDAWGQGTTVTVSSASTKGPSVFPLAPSSKSTSGGTAALGCLVKDYFPEPVTVSWNSGALTSGVHTFPAVLQSSGLYSLSSVVTVPSSSLGTQTYICNVNHKPSNTKVDKKVEPKSCDKTHTCPPCPAPEAAGGPSVFLFPPKPKDTLMISRTPEVTCVVVDVSHEDPEVKFNWYVDGVEVHNAKTKPREEQYASTYRVVSVLTVLHQDWLNGKEYKCKVSNKALPAPIEKTISKAKGQPREPQVYTLPPSRCELTKNQVSLSCAVKGFYPSDIAVEWESNGQPENNYKTTPPVLDSDGSFFLVSKLTVDKSRWQQGNVFSCSVMHEALHNHYTQKSLSLSPDYKDDDDK
chain: EPKSSDKTHTCPPCPAPELLGGPSVFLFPPKPKDTLMISRTPEVTCVVVDVSHEDPEVKFNWYVDGVEVHNAKTKPREEQYNSTYRVVSVLTVLHQDWLNGKEYKCKVSNKALPAPIEKTISKAKGQPREPQVCTLPPSRDELTKNQVSLWCLVKGFYPSDIAVEWESNGQPENNYKTTPPVLDSDGSFFLYSKLTVDKSRWQQGNVFSCSVMHEALHNRYTQKSLSLSP
light: DIVMTQSPLSLPVTPGEPASISCRSSQSLVHSNRNTYLHWYQQKPGQAPRLLIYKVSNRFSGVPDRFSGSGSGTDFTLKISRVEAEDVGVYYCGQGTQVPYTFGQGTKLEIKRTVAAPSVFIFPPSDEQLKSGTASVVCLLNNFYPREAKVQWKVDNALQSGNSQESVTEQDSKDSTYSLSSTLTLSKADYEKHKVYACEVTHQGLSSPVTKSFNRGEC
notes: one-arm antibody
B3: CE115HA000 H96Q one-arm antibody (antibody, human IgG1, kappa, L234A L235A, N297A, name in Kabat numbering)
heavy: QVQLVESGGGVVQPGRSLRLSCAASGFTFSNAWMHWVRQAPGKGLEWVAQIKAKSNNYATYYAESVKGRFTISRDDSKNSLYLQMNSLKTEDTAVYYCRYVQYGAYYGVDAWGQGTTVTVSSASTKGPSVFPLAPSSKSTSGGTAALGCLVKDYFPEPVTVSWNSGALTSGVHTFPAVLQSSGLYSLSSVVTVPSSSLGTQTYICNVNHKPSNTKVDKKVEPKSCDKTHTCPPCPAPEAAGGPSVFLFPPKPKDTLMISRTPEVTCVVVDVSHEDPEVKFNWYVDGVEVHNAKTKPREEQYASTYRVVSVLTVLHQDWLNGKEYKCKVSNKALPAPIEKTISKAKGQPREPQVYTLPPSRCELTKNQVSLSCAVKGFYPSDIAVEWESNGQPENNYKTTPPVLDSDGSFFLVSKLTVDKSRWQQGNVFSCSVMHEALHNHYTQKSLSLSPDYKDDDDK
chain: EPKSSDKTHTCPPCPAPELLGGPSVFLFPPKPKDTLMISRTPEVTCVVVDVSHEDPEVKFNWYVDGVEVHNAKTKPREEQYNSTYRVVSVLTVLHQDWLNGKEYKCKVSNKALPAPIEKTISKAKGQPREPQVCTLPPSRDELTKNQVSLWCLVKGFYPSDIAVEWESNGQPENNYKTTPPVLDSDGSFFLYSKLTVDKSRWQQGNVFSCSVMHEALHNRYTQKSLSLSP
light: DIVMTQSPLSLPVTPGEPASISCRSSQSLVHSNRNTYLHWYQQKPGQAPRLLIYKVSNRFSGVPDRFSGSGSGTDFTLKISRVEAEDVGVYYCGQGTQVPYTFGQGTKLEIKRTVAAPSVFIFPPSDEQLKSGTASVVCLLNNFYPREAKVQWKVDNALQSGNSQESVTEQDSKDSTYSLSSTLTLSKADYEKHKVYACEVTHQGLSSPVTKSFNRGEC
notes: one-arm antibody
B4: CE115HA000 H96L one-arm antibody (antibody, human IgG1, kappa, L234A L235A, N297A, name in Kabat numbering)
heavy: QVQLVESGGGVVQPGRSLRLSCAASGFTFSNAWMHWVRQAPGKGLEWVAQIKAKSNNYATYYAESVKGRFTISRDDSKNSLYLQMNSLKTEDTAVYYCRYVLYGAYYGVDAWGQGTTVTVSSASTKGPSVFPLAPSSKSTSGGTAALGCLVKDYFPEPVTVSWNSGALTSGVHTFPAVLQSSGLYSLSSVVTVPSSSLGTQTYICNVNHKPSNTKVDKKVEPKSCDKTHTCPPCPAPEAAGGPSVFLFPPKPKDTLMISRTPEVTCVVVDVSHEDPEVKFNWYVDGVEVHNAKTKPREEQYASTYRVVSVLTVLHQDWLNGKEYKCKVSNKALPAPIEKTISKAKGQPREPQVYTLPPSRCELTKNQVSLSCAVKGFYPSDIAVEWESNGQPENNYKTTPPVLDSDGSFFLVSKLTVDKSRWQQGNVFSCSVMHEALHNHYTQKSLSLSPDYKDDDDK
chain: EPKSSDKTHTCPPCPAPELLGGPSVFLFPPKPKDTLMISRTPEVTCVVVDVSHEDPEVKFNWYVDGVEVHNAKTKPREEQYNSTYRVVSVLTVLHQDWLNGKEYKCKVSNKALPAPIEKTISKAKGQPREPQVCTLPPSRDELTKNQVSLWCLVKGFYPSDIAVEWESNGQPENNYKTTPPVLDSDGSFFLYSKLTVDKSRWQQGNVFSCSVMHEALHNRYTQKSLSLSP
light: DIVMTQSPLSLPVTPGEPASISCRSSQSLVHSNRNTYLHWYQQKPGQAPRLLIYKVSNRFSGVPDRFSGSGSGTDFTLKISRVEAEDVGVYYCGQGTQVPYTFGQGTKLEIKRTVAAPSVFIFPPSDEQLKSGTASVVCLLNNFYPREAKVQWKVDNALQSGNSQESVTEQDSKDSTYSLSSTLTLSKADYEKHKVYACEVTHQGLSSPVTKSFNRGEC
notes: one-arm antibody
B5: CE115HA000 H96Y one-arm antibody (antibody, human IgG1, kappa, L234A L235A, N297A, name in Kabat numbering)
heavy: QVQLVESGGGVVQPGRSLRLSCAASGFTFSNAWMHWVRQAPGKGLEWVAQIKAKSNNYATYYAESVKGRFTISRDDSKNSLYLQMNSLKTEDTAVYYCRYVYYGAYYGVDAWGQGTTVTVSSASTKGPSVFPLAPSSKSTSGGTAALGCLVKDYFPEPVTVSWNSGALTSGVHTFPAVLQSSGLYSLSSVVTVPSSSLGTQTYICNVNHKPSNTKVDKKVEPKSCDKTHTCPPCPAPEAAGGPSVFLFPPKPKDTLMISRTPEVTCVVVDVSHEDPEVKFNWYVDGVEVHNAKTKPREEQYASTYRVVSVLTVLHQDWLNGKEYKCKVSNKALPAPIEKTISKAKGQPREPQVYTLPPSRCELTKNQVSLSCAVKGFYPSDIAVEWESNGQPENNYKTTPPVLDSDGSFFLVSKLTVDKSRWQQGNVFSCSVMHEALHNHYTQKSLSLSPDYKDDDDK
chain: EPKSSDKTHTCPPCPAPELLGGPSVFLFPPKPKDTLMISRTPEVTCVVVDVSHEDPEVKFNWYVDGVEVHNAKTKPREEQYNSTYRVVSVLTVLHQDWLNGKEYKCKVSNKALPAPIEKTISKAKGQPREPQVCTLPPSRDELTKNQVSLWCLVKGFYPSDIAVEWESNGQPENNYKTTPPVLDSDGSFFLYSKLTVDKSRWQQGNVFSCSVMHEALHNRYTQKSLSLSP
light: DIVMTQSPLSLPVTPGEPASISCRSSQSLVHSNRNTYLHWYQQKPGQAPRLLIYKVSNRFSGVPDRFSGSGSGTDFTLKISRVEAEDVGVYYCGQGTQVPYTFGQGTKLEIKRTVAAPSVFIFPPSDEQLKSGTASVVCLLNNFYPREAKVQWKVDNALQSGNSQESVTEQDSKDSTYSLSSTLTLSKADYEKHKVYACEVTHQGLSSPVTKSFNRGEC
notes: one-arm antibody
B6: CE115HA000 H96S one-arm antibody (antibody, human IgG1, kappa, L234A L235A, N297A, name in Kabat numbering)
heavy: QVQLVESGGGVVQPGRSLRLSCAASGFTFSNAWMHWVRQAPGKGLEWVAQIKAKSNNYATYYAESVKGRFTISRDDSKNSLYLQMNSLKTEDTAVYYCRYVSYGAYYGVDAWGQGTTVTVSSASTKGPSVFPLAPSSKSTSGGTAALGCLVKDYFPEPVTVSWNSGALTSGVHTFPAVLQSSGLYSLSSVVTVPSSSLGTQTYICNVNHKPSNTKVDKKVEPKSCDKTHTCPPCPAPEAAGGPSVFLFPPKPKDTLMISRTPEVTCVVVDVSHEDPEVKFNWYVDGVEVHNAKTKPREEQYASTYRVVSVLTVLHQDWLNGKEYKCKVSNKALPAPIEKTISKAKGQPREPQVYTLPPSRCELTKNQVSLSCAVKGFYPSDIAVEWESNGQPENNYKTTPPVLDSDGSFFLVSKLTVDKSRWQQGNVFSCSVMHEALHNHYTQKSLSLSPDYKDDDDK
chain: EPKSSDKTHTCPPCPAPELLGGPSVFLFPPKPKDTLMISRTPEVTCVVVDVSHEDPEVKFNWYVDGVEVHNAKTKPREEQYNSTYRVVSVLTVLHQDWLNGKEYKCKVSNKALPAPIEKTISKAKGQPREPQVCTLPPSRDELTKNQVSLWCLVKGFYPSDIAVEWESNGQPENNYKTTPPVLDSDGSFFLYSKLTVDKSRWQQGNVFSCSVMHEALHNRYTQKSLSLSP
light: DIVMTQSPLSLPVTPGEPASISCRSSQSLVHSNRNTYLHWYQQKPGQAPRLLIYKVSNRFSGVPDRFSGSGSGTDFTLKISRVEAEDVGVYYCGQGTQVPYTFGQGTKLEIKRTVAAPSVFIFPPSDEQLKSGTASVVCLLNNFYPREAKVQWKVDNALQSGNSQESVTEQDSKDSTYSLSSTLTLSKADYEKHKVYACEVTHQGLSSPVTKSFNRGEC
notes: one-arm antibody
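Note: surface plasmon resonance run at 25 °C with HBS-EP+ as running buffer, CD3 epsilon homodimer attached by amine coupling, antibody passed over as analyte.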

This assay deals with T1, CD3 epsilon homodimer protein (UniProt P07766 23-126).
T1 construct: Construct of the homodimer protein is not described; also called CD3 (CD3 epsilon)
T1 sequence (P07766 23-126): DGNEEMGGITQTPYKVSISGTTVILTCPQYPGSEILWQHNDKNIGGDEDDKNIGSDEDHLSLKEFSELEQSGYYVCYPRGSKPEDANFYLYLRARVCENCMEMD
Kind of assay: SPR (Biacore T200), CD3 epsilon homodimer on CM4 chip, one-arm antibody as analyte; ratio to unaltered CE115HA000. (In general: SPR reads the build-up and loss of mass on a sensor chip optically.)
Turning to B1, the “KD ratio (KD value of CE115HA000/KD value of the altered form)” value (from here on “KD ratio”) is 1.56.

For B2, the “KD ratio” value turned out to be 1.59.

With B3, the “KD ratio” value was 1.36.

Regarding B4, the “KD ratio” value was 3.14.

For the molecule B5, the “KD ratio” value came to 6.67.

For B6, the “KD ratio” value was found to be 1.15.
